Biological target: T1, Y1R L26^NA/F28^NA mutant (printed L28^NA/F28^NA) (human, UniProt P25929 1-384, L26^N to A (the mutant's label is printed L28^NA; the same sentence names the …)
T1 sequence (looked up): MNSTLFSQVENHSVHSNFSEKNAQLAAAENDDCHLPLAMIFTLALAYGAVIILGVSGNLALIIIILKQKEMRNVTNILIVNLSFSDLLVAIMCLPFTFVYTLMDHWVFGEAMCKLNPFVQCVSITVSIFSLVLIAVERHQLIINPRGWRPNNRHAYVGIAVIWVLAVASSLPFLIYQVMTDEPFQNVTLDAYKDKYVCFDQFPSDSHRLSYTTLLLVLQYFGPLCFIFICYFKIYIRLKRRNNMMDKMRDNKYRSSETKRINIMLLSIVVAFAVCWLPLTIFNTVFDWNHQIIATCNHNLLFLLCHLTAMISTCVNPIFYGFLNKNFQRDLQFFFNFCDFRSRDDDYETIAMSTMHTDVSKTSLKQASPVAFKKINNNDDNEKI
Assay: cell-based or functional assay

B1: neuropeptide Y (NPY) (peptide)
peptide: not shown
modifications: C-terminal amide (amidated C-terminal residue Y36)
**Q.** For B1, which “NPY signalling, increase in EC50 against wild-type Y1R” value is on record?
**A.** 2.8 fold

— publication PMC8844075, “Structural basis of neuropeptide Y signaling through Y1 receptor” (Nature Communications, 2022)
